Test results taken from patent publication US20220193270A1, “METHOD FOR ENHANCING TUMOR GROWTH” (MINERVA BIOTECHNOLOGIES CORPORATION, priority 2013, published 2022).

Experiments:
[1] = tested on: DU145 MUC1-positive prostate cancer cells; test: RT-PCR of cancer stem cell markers in DU145 cells cultured with agent; format: cell-based, human; conditions: after 9-10 passages; FIG. 11b
Description: (§1) Example 3: Agents that are able to maintain stem cells in the naïve state transform cancer cells into cancer stem cells wherein only a small number of cells are required for engraftment. Cancer cells were cultured according to standard practice. In the controls, the cancer cells were cultured in their normal media: RPMI for T47D breast cancer cells, DU145 and PC3 prostate cancer cells. However, the test agents, recombinant proteins human NME1 dimers, bacterial HSP593 NME1 dimers, human NME7-AB and 2i, were added to a serum-free minimal media to eliminate potential interference from the many growth factors and cytokines in serum.
(§2) To this serum-free minimal media, rhNME1 (aka NM23) was added to a final concentration of 8 nM, or bacterial HSP593 recombinant NME1 was added to a final concentration of 8 nM, or rhNME7-AB was added to a final concentration of 4 nM, or 2i inhibitors, PD0325901 and CHIR99021, which inhibit the MAP kinase pathway and GSK3, respectively, were added to a final concentration of 3 μM and 1 μM.
Example 3b: Prostate cancer cells were also cultured as described above with either human NME1 dimers, bacterial NME1 dimers, NME7-AB, or 2i inhibitors. […] Thus, the RT-PCR measurements of the cancer stem cell markers are lower than that of the T47D cells, which could be explained by it being the measure of transformed cells and non-transformed cells. In the case of breast cancer cells, we were able to isolate the fully transformed cancer stem cells by collecting the floating cells, but were not able to do so here. DU145 MUC1-positive prostate cancer cells were cultured in RPMI media as a control and in minimal media to which was added recombinant human NME1/NM23 dimers, bacterial HSP593 dimers, or human NME7-AB. […] There was about a 2-8-fold increase in OCT4, MUC1 and CDH1/E-cadherin. However, after serial passaging under these same culture conditions, the increases in expression of cancer stem cell markers became more pronounced. We reasoned that serial passaging allowed more time for cells to transform since we could not rapidly collect floating cells.

[2] = tested on: PC3 MUC1-negative prostate cancer cells; test: RT-PCR of stem cell markers in PC3 cells cultured with agent; format: cell-based, human
Description: as §1, §2
PC3 MUCl-negative prostate cancer cells were also tested for their ability to transform into cancer stem cells when cultured in agents that are able to maintain stem cells in the naïve state. PC3 cells were cultured as described above with either human NME1 dimers, bacterial NME1 dimers or NME7-AB. […] Thus, the RT-PCR measurements of the cancer stem cell markers may be lower because measurements will be the average of transformed cells and non-transformed cells.

human fibroblasts = test: RT-PCR of stem/cancer markers and chromatin rearrangement factors in fibroblasts cultured with NME proteins; format: cell-based; conditions: after 15-20 days in culture
Description: Agents that are able to maintain stem cells in the naive state are also able to transform somatic cells to a cancer or stem-like state. Human NME1 dimer or human NME7 are able to make somatic cells revert to a less mature state, expressing stem and cancer cell markers. Bacterial NME from HSP 593 was tested alongside the human homologs to determine if it could mimic their function by being able to revert somatic cells to a cancer-like state. Human fibroblasts were cultured in a serum-free minimal base media with either HSP 593, human NME1 dimers or human NME7-AB as the only growth factor or cytokine. […] Recalling that stem cells and metastatic cancer cells can grow anchorage-independently, we repeated the experiments but this time a rho kinase inhibitor was added to one set of cells to make the cells adhere to the surface. […] Photos of the experiment show the dramatic change in morphology as the fibroblasts revert when cultured in human or bacterial NME, FIGS. 52-59. The relative order of efficiency of reverting somatic cells to a less mature state was NME7>NME1 dimers >NME1 bacterial. […] However, Bacterial NME from HSP 593 apparently up-regulates expression of human NME7 and NME1.
Example 3d: In this example, fibroblast cells were cultured in the presence of recombinant human NME1/NM23 dimers, bacterial HSP593 NME1 dimers or NME7-AB. The fibroblasts were cultured in their normal media as a control, which is for 500 mL, 445 mL DMEM high glucose base media, 5 mL GlutaMAX and 50 mL of fetal bovine serum (FBS). After 15-20 days in culture with either NME1/NM23 dimers, bacterial HSP593 NME1 dimers or NME7-AB, the morphology of the cells completely changed so that they no longer were recognizable as fibroblasts. […] Here, ‘minus ROCi’ refers to cells that became non-adherent and floated off the surface.

[3] = tested on: Human HES-3 embryonic stem cells; test: Human embryonic stem cell culture with NME protein as only growth factor; format: cell-based; conditions: serum-free minimal base media, agent as the only growth factor or cytokine
Description: Factors that are able to maintain stem cells in the naive state are also able to transform cells to a cancer-like or stem-like state and are also able to transform cancer cells to a cancer stem cell state or a more metastatic state. Herein, we have shown several examples of bacterial NME1 being able to function like human NME1 dimers, which are also able to function like NME7 or NME7-AB. However, the primary example that these factors function in a very similar way is their ability to promote the growth of stem cells, inhibit differentiation and maintain them in the naive state. […] Human HES-3 embryonic stem cells were cultured in a serum-free minimal base media with either HSP 593, human NME1 or NME7-dimers or human NME7-AB as the only growth factor or cytokine. […] Several examples have been presented here that indicate that contacting cells with an agent or agents that are able to revert stem cells from the primed state to the less mature naive state are also able to revert a wide variety of cell types to a less mature state: somatic cells to stem or progenitor cells or cancer cells to more metastatic state also called cancer stem cell state. Therefore, the invention is not meant to be limited to a specific cell type or a specific cancer cell type.

B1: NME7-AB: recombinant human NME7 variant (A and B domains, SEQ ID NO:39) secreted as a monomer; 'NME7' in the experiments means this protein (protein)
chain: MEKTLALIKPDAISKAGEIIEIINKAGFTITKLKMMMLSRKEALDFHVDHQSRPFFNELIQFITTGPIIAMEILRDDAICEWKRLLGPANSGVARTDASESIRALFGTDGIRNAAHGPDSFASAAREMELFFPSSGGCGPANTAKFTNCTCCIVKPHAVSEGLLGKILMAIRDAGFEISAMQMFNMDRVNVEEFYEVYKGVVTEYHDMVTEMYSGPCVAMEIQQNNATKTFREFCGPADPEIARHLRPGTLRAIFGKTKIQNAVHCTDLPEDGLLEVQYFFKILDN
modifications: Human NME7-AB
notes: 'NME7' in the experiments means this protein
[1]
  expression of NANOG and OCT4: significant increases
  increase in the expression of CDH1/E-cadherin: 9 fold
[2]; after passage in agent, FIG. 12a
  expression of stem cell markers SOX2, OCT4 and NANOG: modest increases
[2]; serial passaging in the media, FIG. 12b
  expression of cancer stem cell or stem cell markers: decreased
Human fibroblasts; FIG. 15
  expression of stem cell marker genes OCT4 and NANOG: greatly increased expression
Human fibroblasts; FIG. 16
  expression of BRD4, JMJD6, MBD3 and CHD4: decreased expression
[3]
  support of human stem cell growth: fully supported human stem cell growth
